T1: human CCR4 (human, UniProt P51679 1-360)
T1 construct: Expressed on cells for flow cytometry; also called hCCR4
T1 sequence: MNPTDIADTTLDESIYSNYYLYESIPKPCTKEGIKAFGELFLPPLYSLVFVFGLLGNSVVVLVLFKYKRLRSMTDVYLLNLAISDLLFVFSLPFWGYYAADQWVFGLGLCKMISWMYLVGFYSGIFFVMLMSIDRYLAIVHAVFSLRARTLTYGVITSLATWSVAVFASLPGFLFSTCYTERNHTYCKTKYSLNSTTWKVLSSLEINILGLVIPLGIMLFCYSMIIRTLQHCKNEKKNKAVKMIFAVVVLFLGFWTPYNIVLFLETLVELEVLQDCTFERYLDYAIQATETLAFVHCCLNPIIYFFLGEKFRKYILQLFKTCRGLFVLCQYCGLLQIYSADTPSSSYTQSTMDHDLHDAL

T2: mouse CCR8 (mouse, UniProt P56484 1-353)
T2 construct: Transiently expressed on ExpiHEK293 cells, fused to GFP via cleavable linker
T2 sequence: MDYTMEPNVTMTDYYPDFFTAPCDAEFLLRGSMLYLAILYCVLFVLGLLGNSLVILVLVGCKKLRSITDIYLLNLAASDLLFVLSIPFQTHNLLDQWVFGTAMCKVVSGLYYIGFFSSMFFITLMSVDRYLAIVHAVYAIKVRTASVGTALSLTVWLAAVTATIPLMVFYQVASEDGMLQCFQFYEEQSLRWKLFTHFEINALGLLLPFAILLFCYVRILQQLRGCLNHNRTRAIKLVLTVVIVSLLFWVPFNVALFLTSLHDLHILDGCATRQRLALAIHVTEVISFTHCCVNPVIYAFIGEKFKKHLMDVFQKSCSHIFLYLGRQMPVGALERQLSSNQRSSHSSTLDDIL


Legend:
human CCR8 [1] = biological target: T3, human CCR8 (human, UniProt P51685 1-355); assay: cell-based or functional assay
human CCR4 = biological target: T1, human CCR4; assay: flow cytometry on transiently transfected ExpiHEK293 cells
cynoCCR8 [2] = biological target: T4, cynoCCR8 (cynomolgus, UniProt O97665 1-356 (rhesus entry)); assay: flow cytometry on ExpiHEK293 cells transiently expressing cynoCCR8
T4 construct: Transiently expressed on ExpiHEK293 cells, fused to GFP via cleavable linker; also called cynomolgus CCR8
Protocol: (§1) Briefly, purified antibodies (saturating concentration of 50 nM, FIG. 3A or concentration range from 100 nM, 3-fold dilution, FIGS. 3B-3C) were incubated with 1×10⁵ ExpiHEK293 cells transiently transfected with either human (SEQ ID NO:11; Uniprot/Swiss-Prot: P51685), mouse CCR8 (SEQ ID NO: 64; Uniprot/Swiss-Prot: P56484), or cynoCCR8 (SEQ ID NO: 65; Uniprot/Swiss-Prot: G7NYJ2) fused to GFP protein via cleavable linker, for 30 minutes at 4° C. After washing, secondary anti-human-AF647 antibody (Jackson ImmunoResearch; West Grove, PA) was incubated at 12 nM for 30 minutes in PBS. After washing, cell pellets were resuspended in 50 μL PBS and samples were analyzed by flow cytometry on iQue cytometer (Sartorious, Goettingen, Germany) using Forecyt software (Intellicyt, Ann Arbor, MI). Mean of fluorescence intensity for the specific signal among GFP+ cells are represented in FIGS. 3A-3C. Titration curve of cross-reactive antibodies against mouse CCR8 and cyno CCR8 are presented in FIGS. 3B and 3C, respectively.

mouse CCR8 [3] = biological target: T2, mouse CCR8; assay: flow cytometry on ExpiHEK293 cells transiently expressing mouse CCR8
Protocol: as §1

human CCR8 [4] = biological target: T3, human CCR8; assay: flow cytometry on ExpiHEK293 cells transiently expressing human CCR8, 50 nM antibody
Protocol: as §1

human CCR8 [5] = biological target: T3, human CCR8; assay: flow cytometry on transiently transfected ExpiHEK293 cells, 50 nM antibody
Protocol: as §1

cynoCCR8 [6] = biological target: T4, cynoCCR8; assay: flow cytometry titration on ExpiHEK293 cells transiently expressing cynoCCR8
Protocol: as §1

mouse CCR8 [7] = biological target: T2, mouse CCR8; assay: flow cytometry titration on ExpiHEK293 cells transiently expressing mouse CCR8
Protocol: as §1

T4 sequence (O97665 other isoform, or with tags, fused parts or gaps): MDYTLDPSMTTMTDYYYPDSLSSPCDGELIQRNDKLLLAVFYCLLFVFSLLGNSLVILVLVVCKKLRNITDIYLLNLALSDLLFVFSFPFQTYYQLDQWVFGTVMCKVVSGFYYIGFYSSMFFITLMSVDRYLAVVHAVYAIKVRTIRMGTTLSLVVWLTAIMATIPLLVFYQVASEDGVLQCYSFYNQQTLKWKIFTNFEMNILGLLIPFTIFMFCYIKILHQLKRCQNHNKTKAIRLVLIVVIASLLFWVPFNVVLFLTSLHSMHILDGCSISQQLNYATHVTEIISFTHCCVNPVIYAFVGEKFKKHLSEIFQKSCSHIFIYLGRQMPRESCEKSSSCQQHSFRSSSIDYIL

binding result (human CCR4)	binding result (cynoCCR8 [2])	binding result (mouse CCR8 [3])	binding result (human CCR8 [4])	binding result (human CCR8 [5])	EC50 (cynoCCR8 [6])	EC50 (mouse CCR8 [7])	Binder	ADCC NK killing of M300.19 cells expressing low copies of CCR8, EC50 (human CCR8 [1])
–	–	–	–	–	–	–	HFB11-10 parental antibody (non-humanized) in ADCC enhanced format (antibody, V domains shown) VH: EVQLVETGGGLVQPKGSLKLSCAASGFRFNTNAMNWVRQAPGKDLEWVARIRSKSNNYATYYADSVKDRFTISRDDSQSMLYLQMNNVKTEDTAMYYCVRGSDNNYYYAMDYWGQGTSVTVSS VL: DIVMTQAAPSVPVTPGESVSISCRSSKSLLHSNGNTYLYWFLQRPGQSPQLLIYRMSNLASGVPDRFSGSGSGTAFTLRISRVEAEDVGVYYCMQHLEYPFTFGSGTKLEIK	0.003 nM
no binding (tested: 50 nM)	no binding (tested: 50 nM)	no binding (tested: 50 nM)	binds	–	–	–	HFB11-5 (antibody, human IgG1, V domains shown) VH: EVQLVESGGGLVQPRGSLKLSCTASGFSFNAYAMNWVRQAPGKGLEWVARIRTKSNNYATYYADSVKDRFTISRDDSESMLYLQMKNLKTEDTAMYYCVRGGYGNGGYYFDYWGQGTTLTVSS VL: DIVMTQAAPSVTVTPGESASISCRSSKSLLHRNGNSYLYWFLQRPGQSPQLLIYRISNLASGVPDRFSGSGSGTAFTLRISRVEAEDVGVYYCMQHLEYPFTFGSGTKLEIK	–
no binding (tested: 50 nM)	no binding (tested: 50 nM)	no binding (tested: 50 nM)	–	–	–	–	HFB11-10 (antibody, V domains shown, Mouse variable domains; also called H11-10) VH: EVQLVETGGGLVQPKGSLKLSCAASGFRFNTNAMNWVRQAPGKDLEWVARIRSKSNNYATYYADSVKDRFTISRDDSQSMLYLQMNNVKTEDTAMYYCVRGSDNNYYYAMDYWGQGTSVTVSS VL: DIVMTQAAPSVPVTPGESVSISCRSSKSLLHSNGNTYLYWFLQRPGQSPQLLIYRMSNLASGVPDRFSGSGSGTAFTLRISRVEAEDVGVYYCMQHLEYPFTFGSGTKLEIK	–
no binding (tested: 50 nM)	no binding (tested: 50 nM)	no binding (tested: 50 nM)	–	–	–	–	HFB11-3 (antibody, human IgG1, V domains shown) VH: EVQLVESGGGLVQPQGSLKLSCAASGFSFNTYAMNWVRQAPGKGLQWVARIRSKSNNYATYYADSVKDRFTISRDDSESMLYLQMNNLKTEDAAMYYCVRGKDANYFYAMDYWGQGTSVTVSS VL: DIVMTQAAPSVPVTPGESVSISCRSSKSLLHSNGNTYLYWFLQRPGQSPQLLIYRMSNLASGVPDRFSGSGSGTAFTLRISRVEAEDVGVYYCMQHLEYPFTFGAGTKLELK	–
no binding (tested: 50 nM)	–	–	–	binds	1.8 nM	–	HFB11-19 (antibody, human IgG1, V domains shown) VH: QVQLQQSGAELVKPGASVKLSCKASGYTFTDYIIHWVKQRSGQGLEWIGWFSPRNNYVKYNERFTDKATLTADKSSNTVYMELSSLTSEDSAVYFCSRHGRNSIGFAYWGQGTLVTVSA VL: DIVMTQAAPSVPVTPGESVSISCRSSKSLLNSNGNTYLYWFLQRPGQSPQLLIYRMSNLASGVPDRFSGSGSGTAFTLRISRVEAEDVGVYYCMQHLEYPYTFGGGTKLEIK	–
no binding (tested: 50 nM)	–	–	–	binds	–	< 1 nM	HFB11-2 (antibody, human IgG1, V domains shown) VH: EVQLVESGGGLVQPKGSLKLSCAASGFSFNTYAMNWVRQAPGKGLEWVARIRSKSNNYATYYADSVKDRFTISRDDSERMLYLQMNNLKTEDTAMYYCVRGGSYYSNHYFDYWGQGTTLTVSS VL: DIVMTQAAPSVPVTPGESVSISCRSSKSLLHSNGNTYLYWFLQRPGQSPQLLIYQMSNLASGVPDRFSGSGSGTAFTLRISRVEAEDVGVYYCMQHLEYPFTFGAGTKLELK	–
no binding (tested: 50 nM)	no binding (tested: 50 nM)	no binding (tested: 50 nM)	binds	–	–	–	HFB11-8 (antibody, human IgG1, V domains shown) VH: EVQLVETGGGLVQPKGSLKLSCAASGFRFNTNAMNWVRQAPGKGLEWVARIRSKSNNYATHYVDSVKDRFTVSRDDSQSMLYLQMNNLKAEDTAMYYCVRGSDNNYYYAMDYWGQGTSVTVSS VL: DIVMTQAAPSVPVTPGESVSISCRSSKSLLHSNGNTYLYWFLQRPGQSPQLLIYRMSNLASGVPDRFSGSGSGTSFTLRISRVEVEDVGVYYCMQHLEYPFTFGSGTKLEIK	–
no binding (tested: 50 nM)	–	–	–	binds	15.8 nM	53 nM	HFB11-21 (antibody, human IgG1, V domains shown, also called HFB-21) VH: QVQLQQPGAELVKPGASVKLSCKASGYTFISYWMHWVKQRPGRGLEWIGRIDPNSGKTKYNEKFKTKATLTVDKSSSTAYMHLNSLTSDDSAVYYCAREGWGDYWGQGTTLTVSS VL: DIVLTQSPASLAVSLGQRATISCRASESVDNYGISFMHWYQQKPGQPPRLLIYRASNLASGIPARFSGSGSSTDFTLTINPVETDDIATYYCQQSNKDPRTFGGGTKLEIK	–
